# From patent US20250213713A1, “Antibody-Drug Conjugates Targeting uPARAP Comprising Exatecan Derivatives” (ADCENDO APS, priority 2022, published 2025)
# B1: 980.2 LC0HC0 (chimeric antibody: variable domains of murine 9b7 fused to human IgG1 kappa constant regions) (antibody, V domains shown)
# VH: QVHLVQSGPELKKPGETVKISCKASGYIFIDYGMHWVKQAPGKGLKWMGSINTKSGVSTYAAEFKGRFAFSLETSASTAYLQINNLKNEDTATYFCARPPYYSQYGSYWGQGTLVTVSA
# VL: DIVMTQSQKFMSTSVGDRVSVTCKASQNVDTYVVWYQQKPGQSPKPLIYSASSRFSGVPDRFTGTGSGTDFTLTINNVQSEDLAEYFCQQYHNSPLTFGGGTKLEIKR
# notes: Complete IgG1 kappa, expressed in CHO cells; captured by anti-human Fc in the SPR assay; also called parental antibody
# B2: 980.2 LC4HC3 (humanized 9b7 antibody) (antibody, human IgG1, kappa, V domains shown)
# VH: QVQLVQSGAEVKKPGASVKVSCKASGYIFIDYGMHWVRQAPGQRLEWMGSINTKSGVSTYAAEFKGRVTIYSDTSASTAYMELSSLRSEDTAVYFCARPPYYSQYGSYWGQGTLVTVSS
# VL: EIVMTQSPDSLAVSLGERATINCKASQNVDTYVVWYQQKPGQPPQPLIYSASSRFSGVPDRFSGSGSGTDFTLTISSLQAEDVAIYYCQQYHNSPLTFGGGTKVEIKR
# notes: Complete IgG1 kappa, expressed in CHO cells; captured by anti-human Fc in the SPR assay
# How the values were obtained:
# NCI-N87 cells = test: Inhibition of in vitro proliferation of tumor cells (CTG), NCI-N87; assay type: cell-based; conditions: read-out: NCI-N87 IC50; Table 8, 6 days of culture
# Description: (§1) To test the inhibitory activity of the pharmaceutical compounds on the in vitro proliferation of NCI-N87, JIMT-1 and MBA-MB-231 tumor cells. The cells were treated with the compounds at different concentrations in vitro, and after 6 days of culture, the proliferation of cells was detected using the CTG (CellTiter-Glo® Luminescent Cell Viability Assay, Promega, Cat. No. G7558) reagent, and the in vitro activity of the compounds was evaluated according to the IC50 value. […]
# (§2) There were 8 concentrations in total for the small molecule compounds: 300 nM, 100 nM, 30 nM, 10 nM, 3 nM, 1 nM, 0.3 nM, and 0.1 nM. • 5. Sample adding: the prepared samples to be detected at different concentrations were added to the culture plate, and two duplicate wells were set for each sample. […] Plate reading: the 96-well cell culture plate was taken out, placed in a microplate reader, and measured for the chemiluminescence using the microplate reader.
# as §1, with “with” for “with the”, “using” for “using the”, “reagents,” for “reagent,”, “value. • 1.” for “value.”
# JIMT-1 cells = test: Inhibition of in vitro proliferation of tumor cells (CTG), JIMT-1; assay type: cell-based; conditions: read-out: JIMT-1 IC50; Table 8, 6 days of culture
# Description: as §1, §2
# as §1, with “with” for “with the”, “using” for “using the”, “reagents,” for “reagent,”, “value. • 1.” for “value.”
# [1] = biological target: T1, soluble full-length uPARAP (UniProt Q9UBG0 31-1414, limits assumed); test: SPR (Biacore 2000), antibody captured on anti-human Fc CM5 chip, soluble full-length uPARAP as analyte, 25 C, Langmuir 1:1 global fit
# T1 construct: also called CD280
# T1 sequence (looked up): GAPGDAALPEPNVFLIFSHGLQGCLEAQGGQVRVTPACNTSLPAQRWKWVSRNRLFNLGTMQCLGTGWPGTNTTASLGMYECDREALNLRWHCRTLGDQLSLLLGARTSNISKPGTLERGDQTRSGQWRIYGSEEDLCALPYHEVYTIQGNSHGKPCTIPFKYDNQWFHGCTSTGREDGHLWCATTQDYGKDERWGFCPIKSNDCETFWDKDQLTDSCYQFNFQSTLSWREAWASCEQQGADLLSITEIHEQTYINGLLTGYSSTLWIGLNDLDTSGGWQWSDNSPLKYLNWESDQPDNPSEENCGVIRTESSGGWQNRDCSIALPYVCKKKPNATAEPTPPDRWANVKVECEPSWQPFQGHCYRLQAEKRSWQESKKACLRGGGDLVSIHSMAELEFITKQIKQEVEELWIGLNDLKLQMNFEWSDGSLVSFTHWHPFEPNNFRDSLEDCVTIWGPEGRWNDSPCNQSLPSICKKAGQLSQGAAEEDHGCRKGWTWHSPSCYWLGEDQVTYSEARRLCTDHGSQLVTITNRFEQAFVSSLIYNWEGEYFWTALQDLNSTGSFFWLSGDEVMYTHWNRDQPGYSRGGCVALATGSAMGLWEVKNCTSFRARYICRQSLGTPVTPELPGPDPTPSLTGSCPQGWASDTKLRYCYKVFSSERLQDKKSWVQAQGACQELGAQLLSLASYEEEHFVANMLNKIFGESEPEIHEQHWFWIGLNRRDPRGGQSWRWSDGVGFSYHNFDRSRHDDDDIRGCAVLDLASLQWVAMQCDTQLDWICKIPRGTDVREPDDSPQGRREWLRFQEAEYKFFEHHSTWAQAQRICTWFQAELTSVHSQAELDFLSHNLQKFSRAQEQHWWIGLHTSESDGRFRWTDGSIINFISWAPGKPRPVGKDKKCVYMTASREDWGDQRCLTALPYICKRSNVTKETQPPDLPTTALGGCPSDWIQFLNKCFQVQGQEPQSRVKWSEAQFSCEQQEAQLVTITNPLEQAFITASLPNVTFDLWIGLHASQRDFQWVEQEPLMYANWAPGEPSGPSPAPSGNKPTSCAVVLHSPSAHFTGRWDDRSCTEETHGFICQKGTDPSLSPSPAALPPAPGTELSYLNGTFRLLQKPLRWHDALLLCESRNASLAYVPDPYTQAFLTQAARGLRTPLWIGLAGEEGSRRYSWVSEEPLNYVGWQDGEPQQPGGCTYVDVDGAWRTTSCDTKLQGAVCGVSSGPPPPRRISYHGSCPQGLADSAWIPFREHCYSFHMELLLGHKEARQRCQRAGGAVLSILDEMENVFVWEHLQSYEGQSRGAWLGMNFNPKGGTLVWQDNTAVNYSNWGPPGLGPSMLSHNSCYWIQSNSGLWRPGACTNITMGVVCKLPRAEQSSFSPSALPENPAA
# Description: (§3) SPR analyses were performed for determination of the affinity of the obtained antibodies towards uPARAP. These analyses were performed using a Biacore 2000 instrument (Biaffin GmbH, Kassel, Germany) using a CM5 sensor chip with an anti-human Fc capture surface for antibody binding. The analysis temperature was set at 25° C. Binding of antibody onto this surface was followed by passing soluble full-length uPARAP over the chip, and the resulting association and dissociation rates were derived from the resulting binding curves. For kinetic interaction analyses, a flowrate of 30 μL/min was used and the analysis buffer consisted of 10 mM HEPES pH 7.4, 150 mM NaCl, 3 mM EDTA, 0.05% Tween 20.
# (§4) LC4HC3 and LC0HC0 were analyzed by SPR as described in Materials and Methods above. In particular, the binding kinetics of LC4HC3 were compared with those of LC0HC0 (Table 5).
# [2] = biological target: T1, soluble full-length uPARAP; test: SPR (Biacore 2000), ratio of KD values against LC0HC0
# Description: as §3, §4
Molecule,IC50 (NCI-N87 cells) [nM],IC50 (JIMT-1 cells) [nM],Kd [1] [nM],koff [1] [s⁻¹],kon [1] [M⁻¹ s⁻¹],fold higher ligand affinity than LC0HC0 [2] [fold]
CC[C@@]1(O)C(=O)OCc2c1cc1n(c2=O)Cc2c-1nc1cc(F)c(C)c3c1c2[C@@H](NC(=O)CCS)CC3 [P-III-2],108,108,,,,
CC[C@@]1(O)C(=O)OCc2c1cc1n(c2=O)Cc2c-1nc1cc(F)c(C)c3c1c2[C@@H](NC(=O)CC(C)(C)O)CC3 [P-III-21],4.75,2.87,,,,
B1,,,0.86,5.33e-05,62300,
B2,,,0.5,4.04e-05,81300,~1.7
